Measured values published in article PMC11381544 (Nature Communications, 2024).

B1: D106A/D^P3H1 (protein, UniProt Q32P28 23-736, looked up, variant D106A)
Prolyl 3-hydroxylase 1: EVESEAGWGMVTPDLLFAEGTAAYARGDWPGVVLSMERALRSRAALRALRLRCRTQCAADFPWELDPDWSPSPAQASGAAALRALSFFGGLLRRAACLRRCLGPPAAHSLSEEMELEFRKRSPYNYLQVAYFKINKLEKAVAAAHTFFVGNPEHMEMQQNLDYYQTMSGVKEADFKDLETQPHMQEFRLGVRLYSEEQPQEAVPHLEAALQEYFVAYEECRALCEGPYDYDGYNYLEYNADLFQAITDHYIQVLNCKQNCVTELASHPSREKPFEDFLPSHYNYLQFAYYNIGNYTQAVECAKTYLLFFPNDEVMNQNLAYYAAMLGEEHTRSIGPRESAKEYRQRSLLEKELLFFAYDVFGIPFVDPDSWTPEEVIPKRLQEKQKSERETAVRISQEIGNLMKEIETLVEEKTKESLDVSRLTREGGPLLYEGISLTMNSKLLNGSQRVVMDGVISDHECQELQRLTNVAATSGDGYRGQTSPHTPNEKFYGVTVFKALKLGQEGKVPLQSAHLYYNVTEKVRRIMESYFRLDTPLYFSYSHLVCRTAIEEVQAERKDDSHPVHVDNCILNAETLVCVKEPPAYTFRDYSAILYLNGDFDGGNFYFTELDAKTVTAEVQPQCGRAVGFSSGTENPHGVKAVTRGQRCAIALWFTLDPRHSERDRVQADDLVKMLFSPEEMDLSQEQPLDAQQGPPEPAQESLSGSESKPKDEL
B2: R76D^P3H1 (protein)
chain: EVESEAGWGMVTPDLLFAEGTAAYARGDWPGVVLSMERALRSRAALRALRLRCDTQCAADFPWELDPDWSPSPAQASGAAALRDLSFFGGLLRRAACLRRCLGPPAAHSLSEEMELEFRKRSPYNYLQVAYFKINKLEKAVAAAHTFFVGNPEHMEMQQNLDYYQTMSGVKEADFKDLETQPHMQEFRLGVRLYSEEQPQEAVPHLEAALQEYFVAYEECRALCEGPYDYDGYNYLEYNADLFQAITDHYIQVLNCKQNCVTELASHPSREKPFEDFLPSHYNYLQFAYYNIGNYTQAVECAKTYLLFFPNDEVMNQNLAYYAAMLGEEHTRSIGPRESAKEYRQRSLLEKELLFFAYDVFGIPFVDPDSWTPEEVIPKRLQEKQKSERETAVRISQEIGNLMKEIETLVEEKTKESLDVSRLTREGGPLLYEGISLTMNSKLLNGSQRVVMDGVISDHECQELQRLTNVAATSGDGYRGQTSPHTPNEKFYGVTVFKALKLGQEGKVPLQSAHLYYNVTEKVRRIMESYFRLDTPLYFSYSHLVCRTAIEEVQAERKDDSHPVHVDNCILNAETLVCVKEPPAYTFRDYSAILYLNGDFDGGNFYFTELDAKTVTAEVQPQCGRAVGFSSGTENPHGVKAVTRGQRCAIALWFTLDPRHSERDRVQADDLVKMLFSPEEMDLSQEQPLDAQQGPPEPAQESLSGSESKPKDEL

System: CRTAP
Test: Strep-tactin pulldown, P3H1 mutants with CRTAP
Type: binding, human
Details: P3H1 mutations at the X-interface, Fig. 2g

Molecule | formation of the PCP complex
B1 | significantly decrease the formation of the PCP complex
B2 | significantly decrease the formation of the PCP complex
